Measurements from PMC4351158 (Structure (London, England : 1993), 2015).
Where no end group is shown, it is not given here. fluorescein = fluorescein, a fluorescent label on the peptide N-terminus

What was measured:
Experiment in all cases: fluorescence polarisation
DegS R178A/H198P = molecular target: T1, DegS R178A/H198P (E. coli, UniProt P0AEE3 27-355, R178A | H198P)
T1 sequence (looked up): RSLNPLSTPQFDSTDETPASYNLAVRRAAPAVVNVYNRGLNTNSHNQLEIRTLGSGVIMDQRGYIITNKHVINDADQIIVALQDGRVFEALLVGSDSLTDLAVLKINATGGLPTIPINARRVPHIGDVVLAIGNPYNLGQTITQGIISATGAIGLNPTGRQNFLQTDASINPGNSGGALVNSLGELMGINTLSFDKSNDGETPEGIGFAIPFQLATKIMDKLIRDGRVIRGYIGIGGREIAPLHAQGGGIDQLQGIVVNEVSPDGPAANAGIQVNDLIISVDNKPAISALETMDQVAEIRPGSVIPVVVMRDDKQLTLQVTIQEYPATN

DegS F220A/H198P = molecular target: T2, DegS F220A/H198P (E. coli, UniProt P0AEE3 27-355, F220A | H198P)
T2 sequence (looked up): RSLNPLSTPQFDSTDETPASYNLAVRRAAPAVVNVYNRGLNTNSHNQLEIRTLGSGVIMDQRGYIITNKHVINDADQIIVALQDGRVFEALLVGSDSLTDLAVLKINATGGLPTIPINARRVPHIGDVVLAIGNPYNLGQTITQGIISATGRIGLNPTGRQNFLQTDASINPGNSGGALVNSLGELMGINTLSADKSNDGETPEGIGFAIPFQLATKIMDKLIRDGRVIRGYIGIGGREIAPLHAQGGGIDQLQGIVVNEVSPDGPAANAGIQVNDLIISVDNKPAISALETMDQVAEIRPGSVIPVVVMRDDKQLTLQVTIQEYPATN

DegS D221A/H198P = molecular target: T3, DegS D221A/H198P (E. coli, UniProt P0AEE3 27-355, D221A | H198P)
T3 sequence (looked up): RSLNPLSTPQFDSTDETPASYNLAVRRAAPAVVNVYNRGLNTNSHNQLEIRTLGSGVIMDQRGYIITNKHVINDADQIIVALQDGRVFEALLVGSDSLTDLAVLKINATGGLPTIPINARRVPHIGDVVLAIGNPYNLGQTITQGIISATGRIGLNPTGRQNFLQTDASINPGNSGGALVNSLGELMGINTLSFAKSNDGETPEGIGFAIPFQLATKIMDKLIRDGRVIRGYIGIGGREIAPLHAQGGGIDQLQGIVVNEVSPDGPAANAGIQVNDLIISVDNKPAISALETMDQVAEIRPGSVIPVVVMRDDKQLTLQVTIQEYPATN

DegS P161A = molecular target: T4, DegS P161A (E. coli, UniProt P0AEE3 27-355, P161A)
T4 sequence (looked up): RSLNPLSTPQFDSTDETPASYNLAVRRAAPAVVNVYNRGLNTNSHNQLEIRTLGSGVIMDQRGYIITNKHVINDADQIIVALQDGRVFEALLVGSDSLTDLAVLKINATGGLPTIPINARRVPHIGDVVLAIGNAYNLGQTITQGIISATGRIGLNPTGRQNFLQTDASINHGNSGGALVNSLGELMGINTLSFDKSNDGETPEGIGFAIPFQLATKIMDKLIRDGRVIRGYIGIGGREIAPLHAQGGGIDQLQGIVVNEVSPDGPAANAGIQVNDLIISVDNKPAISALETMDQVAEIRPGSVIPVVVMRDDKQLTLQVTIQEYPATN

DegS H198P/P229A = molecular target: T5, DegS H198P/P229A (E. coli, UniProt P0AEE3 27-355, H198P | P229A)
T5 sequence (looked up): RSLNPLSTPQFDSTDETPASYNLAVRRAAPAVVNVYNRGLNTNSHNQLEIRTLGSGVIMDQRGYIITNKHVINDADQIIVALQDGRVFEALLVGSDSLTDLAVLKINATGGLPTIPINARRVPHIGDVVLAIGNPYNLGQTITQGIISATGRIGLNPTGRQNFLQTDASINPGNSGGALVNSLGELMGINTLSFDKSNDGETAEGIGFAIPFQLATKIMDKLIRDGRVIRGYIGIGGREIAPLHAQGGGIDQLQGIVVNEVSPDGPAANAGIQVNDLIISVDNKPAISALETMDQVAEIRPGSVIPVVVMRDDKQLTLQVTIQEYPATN

- Kd (DegS R178A/H198P): 4 ± 0.1 µM
- Kd (DegS F220A/H198P): 1.6 ± 0.1 µM
- Kd (DegS D221A/H198P): 1.7 ± 0.1 µM
- Kd (DegS P161A): 1.5 ± 0.1 µM
- Kd (DegS H198P/P229A): 2 ± 0.1 µM
B1: fluorescent OMP peptide fluorescein-DNRDGNVYYF (peptide)
peptide: fluorescein-DNRDGNVYYF
